Reference: the nanobody polyreactivity screen of Harvey et al. (2022)

Assay: yeast display, Sf9 membrane polyspecificity reagent, FACS + sequencing; frameworks hold sequencing errors
How it was run: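 A nanobody's polyreactivity label depends on the gate it was sorted from. Yeast display cells were stained with 10% biotinylated, detergent-solubilized Sf9 membrane reagent for 1 hour at 4 °C, enriched on streptavidin microbeads and sorted by FACS. The low and high (top ~1%) gates were set on anti-HA fluorescence for expression and streptavidin fluorescence for reagent binding.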

| Sequence | polyreactivity (PSR sort gate) |
| --- | --- |
| QVQLVESGGGLVQAGGSLRLSCAASGSTFTWYAMGWYRQAPGKERELVAAIRWSGGNTYYADSVKGRFTISRDTAKNTVYLHMNSLKPEDTGVYYCAAVSRTYSLQMYYWGQGTQVTVSS | high polyreactivity |
| QVQLVESGGGLVQAGGSLRLSCAASGSTFTYNAMGWYRHAPGKERELVASISSGTTTYYADSVKGRFTISRDNAKNTVYLQLNSLKPEDTAVYFCAVDSWSRVQGWLAHNYDYWGQGTQVTVSS | low polyreactivity |
| QVQLVESGGGLVQAGGSLRLSCAASGSTFTYNAMGWYRQAPGKVRELVASISSGTTTYYADSVKGRFTISRDNAKNTVYLQMNSLTPEDTAVYYCAVDSWSRVQGWLAHNYDYWGQGTQVTVSS | low polyreactivity |
| QVQLVESGGGLVQAGGSLRLSCAASGSTFTYNDMGWYRQAPGKERELVARITFSSGRTYYADSVKGRFTISRDNAKNTVYLQMNSLKPEDTAVYYCARQWYWRPGYYIGQGYEYWGQGTQVTVSS | low polyreactivity |
| QVQLVESGGGLVQAGGSLRLSCAASGSTFTYYAMGWYRQAPGKERELVAAIDFSGTSTYYADSVKGRFTISRDNAKNTVYLQMNRLKPEDTAVYYCAASQSWYWGGAHDNGEFGYWGQGTQVTVSS | low polyreactivity |
| QVQLVESGGGLVQAGGSLRLSCAASGSTFTYYAMGWYRQAPGKERELVAAISRGGRTNYADSVKGRFTISRDNAKNTVYLQMNSLKPEDTAVYFCAAVVFRTGIWFDYWGQGTQVTVSS | high polyreactivity |
| QVQLVESGGGLVQAGGSLRLSCAASGSTFTYYAMGWYRQAPGKERELVAAITSGGSTNYADSVKGRFTISRDNAKNTVYLQMNSLKPEDTAVYYCAAEYVRQNYEMDYWGQGTQVTVSS | low polyreactivity |
| QVQLVESGGGLVQAGGSLRLSCAASGSTFTYYTMGWYRQAPGKERELVAAITSGTSTNYADSVKGRFTISRDNAKNTVYLQMNSLKPEDTAVYYEYDYWGQGTQVTVSS | low polyreactivity |
| QVQLVESGGGLVQAGGSLRLSCAASGSTFTYYTMGWYRQAPGKERELVAAITSGTSTNYADSVKGRFTISRDNAKNTVYLQMNSLTPEDTAVYYEYDYWGQGTQVTVSS | low polyreactivity |
| QVQLVESGGGLVQAGGSLRLSCAASGSTFVAYAMGWYRHAPGKERELVADISTSDGSTRYADSVKGRFTISSDNAKNTVYLQMISLKPEDTAVYYCGAGSEYYSYGGVRFSFYYWGQGTQVTVSS | low polyreactivity |
| QVQLVESGGGLVQAGGSLRLSCAASGSTFVAYAMGWYRQAPGKERELVAAISSVGRTNYADSVKGRFTISRDNAKNTVYLQMNSLIPEDTAVYYCNVEPGGITRQEYDYWGQGTQVTVSS | high polyreactivity |
| QVQLVESGGGLVQAGGSLRLSCAASGSTFVCYGMGWYRQAPGKEREFVAAISTSGGRTYYADSVKGRFSISRDNAKNTVYLQMNSLKQEDTAVYYCATRPYFTYRWYDYWGQGTKVTVSS | high polyreactivity |
| QVQLVESGGGLVQAGGSLRLSCAASGSTFVDYAMGWDRQAPGKERELVAGINGSGGSTYYADSVKGRFTISRDNAKNTVYLQMNSLKPEDTAVYYCAKDGSNRLALPAWDYNYWGQGTQVTVSS | low polyreactivity |
| QVQLVESGGGLVQAGGSLRLSCAASGSTFVDYAMGWYRQAPGKERELVAAINERGGSTYYADSVKGRFTISRDNAKNTVYLQMNSLKPEDTAVYYCAKQLWVGVKYDYWGQGTQVTVSS | low polyreactivity |
| QVQLVESGGGLVQAGGSLRLSCAASGSTFVDYDMGWYRQAPGKERELVAAITYSGARTYYADSVKGRFTISRDNAKNTVYLKMNSLKPEDTAVYYCNADQRSASDQLEFDYWGQGTQVTVSS | low polyreactivity |
| QVQLVESGGGLVQAGGSLRLSCAASGSTFVDYYMGWYRQATGKERELVAAITYSGARTYYADSVKGRFTISRDNAKNTVYLQMNSLKPEDTAVYYCNADQSTASDQLEFDYWGQGTQVTVSS | low polyreactivity |
| QVQLVESGGGLVQAGGSLRLSCAASGSTFVFNAMGWYRQAPGKERELVAAISIDGSTNYADSVKGRFTISRDNANNSVYLQMNSLKPEDTAVYYCNAKRYGFFYWQGDYWGQGTQVTVSS | low polyreactivity |
| QVQLVESGGGLVQAGGSLRLSCAASGSTFVFNAMGWYRQAPGKERELVARITTGGSTHYADSVKGRFTISRDNAKNTVYLQMNSLKPEDTAVYYCNTGPYTFDSPEYYYWGQGTQVTVSS | low polyreactivity |
| QVQLVESGGGLVQAGGSLRLSCAASGSTFVGYAMGCYRQAPGKERELVATISWIGVRTYYADSVKGRFTISRDNAKNTVYLQMNSLKPEDTAVYYCANRKGYSARSFWRLYEPENDYWGQGTQVNVSS | high polyreactivity |
| QVQLVESGGGLVQAGGSLRLSCAASGSTFVGYAMGWYRQAPGKERELVAAISWRGTRTYYADSVKGRFTISRDNAKNTVYLQMNSLKPEDTAVYYCAAVARQGKGYDYWGQGTQVTVSS | high polyreactivity |
| QVQLVESGGGLVQAGGSLRLSCAASGSTFVGYAMGWYRQAPGKERELVADIDSIGGSTYYADSVKGRFTISRDNAKNTVYLQMNSLKPEDTAVYYCAARRFDTALVLYDYCGQGTQVTVSS | low polyreactivity |
